Data on 16 molecules can be found in US20240116985A1, “STAPLED PEPTIDES AND METHODS THEREOF” (priority 2020, published 2024).

B1: I-2294 (peptide)
peptide: Ac-[αAllylPro]D[tBuAla][B5(4)]D[Phe(3-COOH)]QAFL[PyrS2][Phe(2-CF3)][Phe(3,4-Me2)]A-NH2
modifications: staple 1-4, 4-11
B2: I-2300 (peptide)
peptide: Ac-[αAllylPro]D[tBuAla][B5(4)]D[Phe(3-COOH)][(NMe2)GlnR″]AFL[PyrS2″][2F3MeF″][Bta][(NMe2)GlnR″]-NH2
modifications: staple 1-4, 4-11
B3: I-2303 (peptide)
peptide: Ac-[αAllylPro]D[tBuAla][B5(4)]D[Phe(3-COOH)][(NMe2)GlnR]AFV[PyrS2″][3Thi][Bta]A-NH2
modifications: staple 1-4, 4-11
B4: I-2310 (peptide)
peptide: Ac-[αAllylPro]D[tBuAla][B5(4)]D[Phe(3-COOH)]QAFV[PyrS2″][3Thi][2Nal]A-NH2
modifications: staple 1-4, 4-11
B5: I-2301 (peptide)
peptide: Ac-[αAllylPro]D[tBuAla][B5(4)]D[Phe(3-COOH)][(Me2diaminobutane)GlnR]AFV[PyrS2″][3Thi][Bta]A-NH2
modifications: staple 1-4, 4-11
B6: I-2299 (peptide)
peptide: Ac-[αAllylPro]D[tBuAla][B5(4)]D[Phe(3-COOH)][(NHEt)GlnR]AFL[PyrS2″][2F3MeF″][Bta][(NHEt)GlnR]-NH2
modifications: staple 1-4, 4-11
B7: I-2305 (peptide)
peptide: Isobutyloxycarbonyl-[αAllylPro]D[tBuAla][B5(4)]D[Phe(3-COOH)]AAFL[PyrS2″][Phe(2-Cl)][Bta]A-NH2
modifications: staple 1-4, 4-11
B8: I-2298 (peptide)
peptide: Ac-[αAllylPro]D[tBuAla][B5(4)]D[Phe(3-COOH)]QAFL[PyrS2″][Phe(2-CF3)][5IndA]A-NH2
modifications: staple 1-4, 4-11
B9: I-2302 (peptide)
peptide: Ac-[αAllylPro]D[tBuAla][B5(4)]D[Phe(3-COOH)][(NHEt)GlnR]AFV[PyrS2″][3Thi][Bta]A-NH2
modifications: staple 1-4, 4-11
B10: I-2296 (peptide)
peptide: Ac-[αAllylPro]D[tBuAla][B5(4)]D[Phe(3-COOH)]QAFV[PyrS2][3Thi][5IndA]A-NH2
modifications: staple 1-4, 4-11
B11: I-2307 (peptide)
peptide: Ac-[αAllylPro]D[tBuAla][B5(4)]D[Phe(3-COOH)]AAFL[PyrS2″][3Thi][Phe(3-Br)]Q-NH2
modifications: staple 1-4, 4-11
B12: I-1249 (peptide)
peptide: Ac-[αAllylPro]D[tBuAla][B5(4)]DDAAFL[PyrS2″][Phe(2-Cl)][Bta][Thr(ol)]
modifications: staple 1-4, 4-11
B13: I-1261 (peptide)
peptide: {Propanoyl(3-OMe)}-[αAllylPro]D[tBuAla][B5(33)]DDAAFT[S8][Phe(2-Cl)][Bta]Q-NH2
modifications: staple 1-4, 4-11
B14: I-1266 (peptide)
peptide: Ac-[αAllylPro]D[tBuAla][B5(5)]DTAA[1Nal]T[PyrS2″]F[Bta]S-NH2
modifications: staple 1-4, 4-11
B15: I-1262 (peptide)
peptide: Ac-[αAllylPro]D[tBuAla][B5(33)]DDAAFT[S10][Phe(2-Cl)][Bta]T-NH2
modifications: staple 1-4, 4-11
B16: I-1251 (peptide)
peptide: Ac-[αAllylPro]D[tBuAla][B5(4)]DDAAFL[PyrS2″][Phe(2-Cl)][Bta][Leu(ol)]
modifications: staple 1-4, 4-11

Starred links: 1 amine or outer side, 2 acyl side, 3 side chain; linkers in the order of their positions; H or OH if unused. Positions of bridges follow the written chain, without caps; N, C: chain ends. Non-standard residues stand in square brackets, D forms with d. Primed or numbered codes have the meaning given here. *: point of attachment. PyrS2″ = (S)-3-amino-1-((pent-4-en-1-yloxy)carbonyl)pyrrolidine-3-carboxylic acid (stapling residue), C=CCCCOC(=O)N1CC[C@@](N[*:1])(C(=O)[*:2])C1; B5(4) = 2,2-bis(4-pentenyl)glycine = 2-amino-2-(pent-4-en-1-yl)hept-6-enoic acid (stitching residue), C=CCCCC(CCCC=C)(N[*:1])C(=O)[*:2]; B5(5) = 2,2-bis(4-pentenyl)glycine, 2-amino-2-(pent-4-en-1-yl)hept-6-enoic acid (stitching residue), C=CCCCC(CCCC=C)(N[*:1])C(=O)[*:2]; B5(33) = 2-amino-2-(pent-4-en-1-yl)hept-6-enoic acid (bis-pentenylglycine, two olefin side chains), C=CCCCC(CCCC=C)(N[*:1])C(=O)[*:2]; PyrS2 = (S)-3-amino-1-((pent-4-en-1-yloxy)carbonyl)pyrrolidine-3-carboxylic acid, C=CCCCOC(=O)N1CC[C@@](N[*:1])(C(=O)[*:2])C1; (Me2diaminobutane)GlnR = N5-methyl-N5-(4-(methylamino)butyl)-L-glutamine, CN(CCCCN(C)[*:3])C(=O)CC[C@H](N[*:1])C(=O)[*:2]; 5IndA = (S)-2-amino-3-(2,3-dihydro-1H-inden-5-yl)propanoic acid, O=C([C@H](Cc1ccc2c(c1)CCC2)N[*:1])[*:2]; (NMe2)GlnR″ = [NMe2]GlnR: N5,N5-dimethyl-L-glutamine, CN(C)C(=O)CC[C@H](N[*:1])C(=O)[*:2]; B5(3) = 2,2-bis(4-pentenyl)glycine (stitching residue), C=CCCCC(CCCC=C)(N[*:1])C(=O)[*:2]; S10 = (S)-2-amino-2-methyldodec-11-enoic acid, C=CCCCCCCCC[C@](C)(N[*:1])C(=O)[*:2]; (NMe2)GlnR = N5,N5-dimethyl-L-glutamine, CN(C)C(=O)CC[C@H](N[*:1])C(=O)[*:2]; Phe(3-COOH) = N[C@@H](Cc1cccc(C(=O)O)c1)C(=O)O; Phe(2-CF3) = N[C@@H](Cc1ccccc1C(F)(F)F)C(=O)O; Phe(3,4-Me2) = Cc1ccc(C[C@H](N)C(=O)O)cc1C; Phe(3-Br) = N[C@@H](Cc1cccc(Br)c1)C(=O)O; Phe(2-Cl) = N[C@@H](Cc1ccccc1Cl)C(=O)O; 1Nal = N[C@@H](Cc1cccc2ccccc12)C(=O)O; 2Nal = N[C@@H](Cc1ccc2ccccc2c1)C(=O)O; Bta = N[C@@H](Cc1csc2ccccc12)C(=O)O; Isobutyloxycarbonyl = CC(C)COC(=O)*; αAllylPro = C=CC[C@@]1(C(=O)O)CCCN1; tBuAla = CC(C)(C)C[C@H](N)C(=O)O; 3Thi = N[C@@H](Cc1ccsc1)C(=O)O; S8 = C=CCCCCCC[C@](C)(N)C(=O)O; Thr(ol) = C[C@@H](O)[C@H](N)CO; Propanoyl(3-OMe) = COCCC(=O)*; Leu(ol) = CC(C)C[C@H](N)CO; 2F3MeF″ = Phe derivative

What is called IC50 is the concentration that inhibits the measured activity by half. High values mean lower potency, low ones higher potency. The EC50 is the concentration needed to bring the measured effect to its halfway point.

Chain of Bcat-Halo (P35222 whole entry): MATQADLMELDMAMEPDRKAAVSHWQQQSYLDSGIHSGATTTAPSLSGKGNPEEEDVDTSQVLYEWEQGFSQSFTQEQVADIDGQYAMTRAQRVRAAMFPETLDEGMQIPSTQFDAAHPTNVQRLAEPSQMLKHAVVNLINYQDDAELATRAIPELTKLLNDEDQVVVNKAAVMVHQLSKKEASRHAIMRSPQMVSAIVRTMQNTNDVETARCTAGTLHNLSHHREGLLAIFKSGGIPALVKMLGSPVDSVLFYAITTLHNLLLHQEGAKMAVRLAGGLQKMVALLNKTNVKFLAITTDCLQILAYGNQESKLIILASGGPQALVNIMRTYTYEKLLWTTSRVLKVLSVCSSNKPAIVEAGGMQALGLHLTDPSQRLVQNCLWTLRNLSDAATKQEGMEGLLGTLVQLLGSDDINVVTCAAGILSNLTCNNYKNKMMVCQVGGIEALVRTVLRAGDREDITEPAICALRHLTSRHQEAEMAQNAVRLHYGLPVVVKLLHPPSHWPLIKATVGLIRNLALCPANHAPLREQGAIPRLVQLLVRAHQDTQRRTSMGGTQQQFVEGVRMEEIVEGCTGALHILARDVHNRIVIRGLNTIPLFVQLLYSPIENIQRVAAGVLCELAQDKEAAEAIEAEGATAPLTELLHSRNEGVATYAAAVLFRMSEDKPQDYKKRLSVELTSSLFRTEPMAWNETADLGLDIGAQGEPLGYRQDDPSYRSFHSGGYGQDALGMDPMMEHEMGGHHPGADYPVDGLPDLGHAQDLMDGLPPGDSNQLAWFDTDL

The first assay addresses Bcat-Halo (UniProt P35222). The assay is described as follows: NanoBRET Abs IC50, HEK293 cells, Bcat-Halo / TCF4-Luc.
With B1, the IC50 is 4600 nM.

Take B2: the IC50 amounted to 1200 nM. This IC50 is about 3.8-fold lower than that of the molecule before.

In turn, B3 displayed an IC50 of 1200 nM.

The molecule B4 returned an IC50 of 8900 nM.

Consider B5, for which the concentration for half-maximal inhibition (IC50) is > 20000 nM.

On to B6, for which the IC50 was found to be 5200 nM.

Turning to B7, the IC50 is > 20000 nM.

Consider B8, for which the IC50 came to 4600 nM.

Consider B9, for which the IC50 turned out to be 2500 nM.

In turn, B10 showed an IC50 of 5100 nM.

The molecule B11 came in with an IC50 of 8900 nM.

A further assay addresses full-length beta-Catenin (Uniprot ID P35222) (Homo sapiens (Human)) (UniProt P35222). Nature of the assay: fluorescence polarization competition, competitor 5FAM-TCF4 10-53. On the technique in general: Polarisation of emitted light reports the rotation of a fluorescent probe.
Target sequence in this assay (P35222 2-781 limits assumed): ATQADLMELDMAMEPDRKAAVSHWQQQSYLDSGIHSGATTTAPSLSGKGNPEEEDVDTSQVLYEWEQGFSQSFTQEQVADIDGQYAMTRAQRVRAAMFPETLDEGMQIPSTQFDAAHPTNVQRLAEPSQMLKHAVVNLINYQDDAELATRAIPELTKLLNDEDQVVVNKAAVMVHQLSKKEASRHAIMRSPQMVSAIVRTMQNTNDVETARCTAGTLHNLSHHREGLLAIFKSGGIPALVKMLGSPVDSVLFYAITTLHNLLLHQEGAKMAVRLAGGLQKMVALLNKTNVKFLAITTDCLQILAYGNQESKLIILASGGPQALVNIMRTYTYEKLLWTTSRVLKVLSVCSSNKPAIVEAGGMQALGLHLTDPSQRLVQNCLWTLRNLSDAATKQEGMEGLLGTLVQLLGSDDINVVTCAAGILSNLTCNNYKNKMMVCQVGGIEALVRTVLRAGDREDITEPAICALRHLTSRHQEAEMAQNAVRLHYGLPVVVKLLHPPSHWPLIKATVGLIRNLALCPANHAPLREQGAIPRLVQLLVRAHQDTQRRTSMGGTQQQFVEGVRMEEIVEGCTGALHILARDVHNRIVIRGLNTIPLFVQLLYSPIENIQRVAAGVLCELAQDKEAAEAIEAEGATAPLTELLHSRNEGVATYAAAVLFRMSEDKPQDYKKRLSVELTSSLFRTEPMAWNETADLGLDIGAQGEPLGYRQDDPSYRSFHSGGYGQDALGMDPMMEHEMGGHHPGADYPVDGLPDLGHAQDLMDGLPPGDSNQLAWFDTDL
B12 returned an IC50 of 17 nM.

On to B13, for which the IC50 stood at 31 nM.

B14 registered an IC50 of 755 nM.

The molecule B15 returned an IC50 of 1120 nM. The IC50 values of the last two molecules are within 1.5-fold of each other.

In the case of B16, the IC50 came out at 1940 nM. Compared with the last molecule, the IC50 is about 1.7-fold higher.

The next assay has the same target. Nature of the assay: FP competition: displacement of 5FAM-TCF4(10-53) from full-length beta-catenin.
Target sequence in this assay (P35222 whole entry, one chain of several): as the sequence (P35222 whole entry) above
For B12, the EC50 came to 17 nM.

Molecule B16 had an EC50 of 1940 nM.

The target is the same in the next assay. The assay is described as follows: fluorescence polarization competition; full-length beta-catenin + 5FAM-TCF4(10-53) probe.
Target sequence in this assay (P35222 whole entry, one chain of several): as the sequence (P35222 whole entry) above
In the case of B13, the EC50 was determined as 31 nM.

On to B14, for which the EC50 is 755 nM.

B15: the EC50 is 1120 nM.

The next assay has the same target. Nature of the assay: fluorescence polarization competition against 5FAM-TCF4(10-53), full-length beta-catenin.
Target sequence in this assay (P35222 whole entry, one chain of several): as the sequence (P35222 whole entry) above
Take B1: the IC50 turned out to be 16 nM.

On to B2, for which the IC50 stood at 6 nM. This IC50 is about 2.7-fold lower than that of the molecule before.

As for B3, the IC50 was 5 nM.

Molecule B4 gave an IC50 of 18 nM.

Turning to B5, the IC50 came to 5 nM.

B6 showed an IC50 of 7 nM.

B7 gave an IC50 of 65 nM.

For B8, the IC50 came out at 8 nM.

B9 came in with an IC50 of 5 nM.

In turn, B10 had an IC50 of 6 nM.

B11: the IC50 came out at 16 nM.
